# Measurements reported in PMC8176890.
# pKd: −log10 of the molar value. Read-outs that look alike come from different tables or passages of the source.
# Legend:
# [1] = target: wild-type heterotrimeric human Gαi1β1γ1 (human) (UniProt P63096); experiment: MST
# [2] = target: wild-type heterotrimeric human Gαi1β1γ1 (human) (UniProt P63096); experiment: MST; remark: listed apart in the source
# [3] = target: wild-type heterotrimeric human Gαi1β1γ1 (human) (UniProt P63096); experiment: MST; remark: listed apart in the source
# [4] = target: wild-type heterotrimeric human Gαi1β1γ1 (human) (UniProt P63096); experiment: BLI
# [5] = target: wild-type heterotrimeric human Gαi1β1γ1 (human) (UniProt P63096); experiment: MST; remark: listed apart in the source
# Chain of wild-type heterotrimeric human Gαi1β1γ1 (human) (P63096 whole entry, chain 1 of 3): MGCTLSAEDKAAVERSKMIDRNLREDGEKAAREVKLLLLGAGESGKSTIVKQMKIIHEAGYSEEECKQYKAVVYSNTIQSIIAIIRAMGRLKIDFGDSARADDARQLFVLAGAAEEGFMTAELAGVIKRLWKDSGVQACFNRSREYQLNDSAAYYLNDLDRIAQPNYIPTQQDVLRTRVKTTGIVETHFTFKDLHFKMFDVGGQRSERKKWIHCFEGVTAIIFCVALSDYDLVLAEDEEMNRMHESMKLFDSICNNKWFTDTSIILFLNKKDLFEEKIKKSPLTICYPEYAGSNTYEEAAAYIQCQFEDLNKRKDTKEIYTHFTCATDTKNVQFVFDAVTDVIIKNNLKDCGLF
# Chain of wild-type heterotrimeric human Gαi1β1γ1 (human) (P62873 2-340, chain 2 of 3, further chain): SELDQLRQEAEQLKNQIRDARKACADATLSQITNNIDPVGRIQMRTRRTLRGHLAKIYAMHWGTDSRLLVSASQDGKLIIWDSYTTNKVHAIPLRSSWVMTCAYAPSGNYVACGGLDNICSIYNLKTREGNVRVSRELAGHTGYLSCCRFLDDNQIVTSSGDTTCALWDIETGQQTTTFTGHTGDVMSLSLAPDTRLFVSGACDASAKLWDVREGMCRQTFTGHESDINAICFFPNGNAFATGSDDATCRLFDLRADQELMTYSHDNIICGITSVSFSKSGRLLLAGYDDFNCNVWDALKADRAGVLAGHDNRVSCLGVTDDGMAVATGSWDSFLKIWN
# Chain of wild-type heterotrimeric human Gαi1β1γ1 (human) (P63211 2-74, chain 3 of 3, further chain): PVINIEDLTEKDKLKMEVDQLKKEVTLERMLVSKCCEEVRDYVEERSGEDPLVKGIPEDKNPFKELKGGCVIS
Substance,pKd [1],pKd [2],pKd [3],KD of the high-affinity binding mode (2:1 model) [4],KD of the lower-affinity binding mode (2:1 model) [4],pKd [5]
NTS-NTSR1 complex: neurotensin 8-13 bound to rat NTSR1 TM86V-L167R ΔIC3B (from UniProt P20789 50-390),6.63,7.28,5.85,5.8 nM,38 nM,7.12
NTS-NTSR1 complex with the 5-alanine mutant TM86V-L167R E166A/K176A/K178A/S182A/R185A (from UniProt P20789 50-390),,,,,,6.46
